# Laboratory results taken from the supplement of paper PMC9170038.
# Tested on: K4 kissing-loop RNA reporter
# Assay: apparent KD of K4 kissing-loop reporter; higher = weaker reporter binding
# Conditions: Eterna round: R107
# Description: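 RNA-MaP round R107: designed RNA switches with theophylline, tryptophan, arginine or FMN aptamers are transcribed on-chip within common flanks. They are titrated with a labelled K4 kissing-loop RNA reporter in RNA-MaP buffer (100 mM Tris pH 7.5, 80 mM KCl, 4 mM MgCl2), without ligand or with the indicated ligand. Median apparent KD per design.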
# [1] = input ligand: theophylline 20 uM
# [2] = input ligand: tryptophan 2.4 mM
# 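Also: bound reporter read as fluorescence of individual clusters on recovered sequencing chips by microscopy, with normalized cluster intensities fitted with a binding model.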
Sequence,apparent KD of K4 kissing-loop reporter (input ligand: FMN 200 uM),apparent KD of K4 kissing-loop reporter (input ligand: arginine 13.2 mM),apparent KD of K4 kissing-loop reporter (input ligand: none),apparent KD of K4 kissing-loop reporter [1],apparent KD of K4 kissing-loop reporter [2]
UCACUUAAAAGAAAUAGAAAUUCUAGAGAUACCAGCGACACUCUUCGCCCUUGGCAGCUCAAGUGGGACCCAGUGAUGUUGGGCG [Xeceteza],0.426 µM,0.289 µM,0.413 µM,0.269 µM,0.324 µM
UCAGUUCACGGGCGCCGCAAACCGCAGGAUACCAGUCACAUCGCUGACCCUUGGCAGCCUAUGGACUAGUGAUGUUAGUCCAGGA [theeternabot_sameState_KL_Theo_A_37],0.0985 µM,0.0952 µM,0.128 µM,0.117 µM,0.115 µM
UCCAGCAGUACUGAUACCAGACUGCAUGUAGUGAUGUUGCAUAAGGGCAUAGAUGUCUCAGUCCCUUGGCAGCAGUACUGUUGCA [Theo B SS t1],0.317 µM,0.239 µM,0.284 µM,0.191 µM,0.257 µM
UCCAUGCGCGCACGGUACUUGCCCGCAUAUCGAGGACCGGUACGGCCGCCACUCGUGCCAGUGAUGUUGGCCGGAGAGCCUUAUG [theeternabot_sameState_KL_Trp_A_22],0.476 µM,0.349 µM,0.475 µM,0.449 µM,0.524 µM
UCCUAGGCUCGAAAGAGCCUAGGAUGGACUCAGGAUAUCCGGAAACGGAGAAGGGAGUCACUAGUGAUGUUAGGGACUCCCUAAA,0.0875 µM,0.079 µM,0.101 µM,0.0703 µM,0.0875 µM
UCCUGCAAUCAGCCACGAAAGUGGAUGGAUACCAGAGUCGAAAGACUCCCUUGGCAGCCAGUGAUGUUGGAAGCAGGUAAAUAAA,0.583 µM,0.501 µM,0.761 µM,0.343 µM,1.29 µM
UCGAAGGAUGGAAGGAGCGCUCGUCAGUCCUGCGAGUGAUGUUCGUGGGUAAAUAGUCGCGAGCAGGUAGGUCGCCAUCUUGAGA [Lageso],0.11 µM,0.0969 µM,0.101 µM,0.152 µM,0.118 µM
UCGACAGUGAACGAUACCAGCGUCACGUGGCUGGUGGUCACAUGAGUGAUGUUCAUGUAACGCCCUUGGCAGCGUGCACGUAUCC [KL-XTheo-B9],0.234 µM,0.206 µM,0.22 µM,0.199 µM,0.199 µM
UCGCGUCUGCGAGGAUAUCGGAUUAGAGUGAUGUUCUAUAAACGCCCAGUGAUGUUGGAUGCGAUACGAGAAGGCGCUGGGCGCA [Same State FMN B GF8],0.178 µM,0.28 µM,0.203 µM,0.321 µM,0.167 µM
UCGGACCCUGGAGGAUAUGAGUCGAGUGAUGUUCGGCGGUCCAUGCUGGUGCGGCGUUAUGCCCUUUUAGAAGGCCAGGGUCCGA [#2 Exclusion - FMN B Attempt #12 (HarryS)],0.22 µM,0.147 µM,0.194 µM,0.174 µM,0.162 µM
UCGGACCCUGGAGGAUAUGAGUCUAGUGAUGUUAGGCGGUCCAUGCCGGUGCGGCGUUAUGCCCUUUUAGAAGGCCAGGGUCCGA [#2 Exclusion - FMN B Attempt #14 (HarryS)],0.143 µM,0.0788 µM,0.107 µM,0.102 µM,0.112 µM
UCGGAUGUUCUGUCGAGAUGAGCAAUAGCACGAGGACCGGUACGGCCGCCACUCGACCCAGUGAUGUUGGGUGGCUAAGUUCAGC [Geragean],0.265 µM,0.239 µM,0.208 µM,0.285 µM,0.147 µM
UCUAUAGUUAGAGGAUAUUGAAUUAGAGUGAUGUUCUAUAGAAGACCAGUGAUGUUGGAUAGUAUACAAGAAGGCUGAUCUAUAG [Same State FMN B GF 1],0.208 µM,0.665 µM,0.451 µM,0.883 µM,0.499 µM
UCUGCUGUAUAUGAUACCAGCAGUGAGAGACAGGAAGUAUAGUGAUGUUAUAUGAGAGAAUGCCCUUGGCAGCGUGUGCGGGUGG [SSTheophylB.Y],0.119 µM,0.111 µM,0.0817 µM,0.119 µM,0.0662 µM
UCUGCUGUAUAUGAUACCAGCAGUGAGAGACGAGAAGUAUAGUGAUGUUAUAUGAGAGAAUGCCCUUGGCAGCGUGUGCGUGUGG [SSTheophylB.aA],0.0963 µM,0.0943 µM,0.0744 µM,0.102 µM,0.0648 µM
UCUGGAGCAUAUGAUACCAGCAGUGAGAGACAGGAAGUAUAGUGAUGUUAUAUGAGAGAAUGCCCUUGGCAGCGUGUGCAGUGGC [SSTheophylB.P],0.104 µM,0.0965 µM,0.065 µM,0.0949 µM,0.0597 µM
UCUUUUGUAUAUGAUACCAGCAGUGAGAGACAGGAAGUAUAGUGAUGUUAUAUGAGAGAAUGCCCUUGGCAGCGUGUGCGGUGGG [SSTheophylB.U],0.151 µM,0.146 µM,0.114 µM,0.178 µM,0.108 µM
UCUUUUGUAUAUGAUACCAGCAGUGAGAGACAGGAAGUAUAGUGAUGUUAUAUGAGAGAAUGCCCUUGGCAGCGUGUGCGGUUGG [SSTheophylB.V],0.095 µM,0.174 µM,0.322 µM,0.268 µM,0.137 µM
UGAAAUCGAAUUCCGCGUGCAACGCCAGUAAAGGAUAUCAUCACACUGAGAAGGUUACGAAGCGGAGUGAUGUUCCGCUCUAUCC [theeternabot_sameState_KL_FMN_A_50],0.105 µM,0.112 µM,0.12 µM,0.114 µM,0.0985 µM
UGACAUUGCUCAGAUACCAGACUUGAGGAACACCCAAGUGCCAAAACGUACUAAAUAAAAGUCCCUUGGCAGCUGAGCAAUGUCU [TheoBX 13],0.0915 µM,0.0306 µM,0.0462 µM,0.0609 µM,0.0594 µM
UGACAUUGCUCAGAUACCAGACUUGAGGAUCACCCAGGUGCCAAACGUACAAUAAUAAAAGUCCCUUGGCAGCUGAGCAAUGUCU [TheoBX 14],0.0657 µM,0.0517 µM,0.0302 µM,0.0699 µM,0.0553 µM
UGACAUUGCUCAGAUACCAGACUUGAGGAUCACCCAGGUGCCAAAUAAACGUACAUAAAAGUCCCUUGGCAGCUGAGCAAUGUCU [TheoBX 11],0.0648 µM,0.024 µM,0.0559 µM,0.0858 µM,0.0765 µM
